Tests used:
[1] = molecular target: T1, rHuman CD44/Fc Chimera, CF (R&D Systems Cat#3660-CD) (human, UniProt P16070 21-220); test: MSD ECL multi-spot plate, antigen immobilized; Fab 40 nM; blank spot 502
T1 construct: Purchased Fc chimera; not shown: Fc portion of the purchased chimera

[2] = molecular target: T2, rHuman EGF R/Fc Chimera, CF (R&D Systems Cat#344-ER) (human, UniProt P00533 25-645); test: as above
T2 construct: Purchased Fc chimera; not shown: Fc portion of the purchased chimera

[3] = molecular target: T3, rHuman Erythropoietin R/Fc Chimera, CF (R&D Systems Cat#963-ER) (human, UniProt P19235 25-250); test: as above
T3 construct: Purchased Fc chimera; also called EPO R/Fc; Epo R; not shown: Fc portion of the purchased chimera
T3 sequence: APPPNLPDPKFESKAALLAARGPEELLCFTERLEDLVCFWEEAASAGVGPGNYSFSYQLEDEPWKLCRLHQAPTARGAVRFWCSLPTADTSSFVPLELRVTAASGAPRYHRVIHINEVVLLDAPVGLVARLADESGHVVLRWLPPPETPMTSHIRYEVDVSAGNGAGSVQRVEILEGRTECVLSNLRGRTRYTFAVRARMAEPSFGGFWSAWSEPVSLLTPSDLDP

[4] = molecular target: T4, Recombinant Human DLL4 (R&D Systems Cat#1506-D4/CF) (human, UniProt Q9NR61 27-524); test: as above
T4 construct: Purchased recombinant protein; also called delta-like protein 4

[5] = molecular target: T5, rHuman Notch-1/Fc Chimera, CF (R&D Systems Cat#3647-TK) (human, UniProt P46531 19-526); test: MSD ECL titration, Fab 0.1 nM, blank 201
T5 construct: Bought Fc chimera; Fc part of the bought chimera not given

[6] = molecular target: T6, Recombinant Human DLL4 (R&D Systems Cat#1506-D4/CF) (human, UniProt Q9NR61 27-524); test: MSD ECL titration, Fab 0.1 nM, blank 201
T6 construct: Bought recombinant protein; also called rHuman DLL4; delta-like protein 4

[7] = molecular target: T7, rHuman HGF R/c-MET/Fc Chimera, CF (R&D Systems Cat#358-MT/CF) (human, UniProt P08581 25-932); test: MSD ECL titration, Fab 0.1 nM, blank 201
T7 construct: Bought Fc chimera; also called HGF R/Fc; Fc part of the bought chimera not given

[8] = molecular target: T8, rHuman ErbB2/Fc Chimera, CF (R&D Systems Cat#1129-ER) (human, UniProt P04626 23-652); test: MSD ECL titration, Fab 0.1 nM, blank 201
T8 construct: Bought Fc chimera; also called HER2/neu; Fc part of the bought chimera not given

[9] = molecular target: T9, rHuman IGF-1 sR (insulin-like growth factor-1 soluble receptor), CF (R&D Systems Cat#391-GR) (human, UniProt P08069 31-932); test: MSD ECL titration, Fab 0.1 nM, blank 201
T9 construct: Bought soluble receptor; also called IGF-R1

[10] = molecular target: T10, rHuman EGF R/Fc Chimera, CF (R&D Systems Cat#344-ER) (human, UniProt P00533 25-645); test: MSD ECL titration, Fab 0.1 nM, blank 201
T10 construct: Bought Fc chimera; Fc part of the bought chimera not given

[11] = molecular target: T11, rHuman IGF-1 sR (insulin-like growth factor-1 soluble receptor), CF (R&D Systems Cat#391-GR) (human, UniProt P08069 31-932); test: ECL (MSD multi-spot), antigen on plate, Fab 10 nM
T11 construct: Bought soluble receptor; also called IGF-R1

[12] = molecular target: T12, rHuman Erythropoietin R/Fc Chimera, CF (R&D Systems Cat#963-ER) (human, UniProt P19235 25-250); test: ECL (MSD multi-spot), antigen on plate, Fab 10 nM
T12 construct: Bought Fc chimera; also called EPO R/Fc; Epo R; not shown: Fc of the bought chimera
T12 sequence: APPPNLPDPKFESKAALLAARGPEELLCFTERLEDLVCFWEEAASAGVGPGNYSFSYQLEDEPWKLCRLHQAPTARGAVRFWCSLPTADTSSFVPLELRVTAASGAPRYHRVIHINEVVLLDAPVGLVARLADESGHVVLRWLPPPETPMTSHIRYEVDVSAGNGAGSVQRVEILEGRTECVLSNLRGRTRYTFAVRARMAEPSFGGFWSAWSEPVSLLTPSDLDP

[13] = molecular target: T13, rHuman HGF R/c-MET/Fc Chimera, CF (R&D Systems Cat#358-MT/CF) (human, UniProt P08581 25-932); test: ECL (MSD multi-spot), antigen on plate, Fab 10 nM
T13 construct: Bought Fc chimera; also called HGF R/Fc; not shown: Fc of the bought chimera

[14] = molecular target: T14, rHuman CD44/Fc Chimera, CF (R&D Systems Cat#3660-CD) (human, UniProt P16070 21-220); test: ECL (MSD multi-spot), antigen on plate, Fab 10 nM
T14 construct: Bought Fc chimera; not shown: Fc of the bought chimera

[15] = molecular target: T15, rHuman EGF R/Fc Chimera, CF (R&D Systems Cat#344-ER) (human, UniProt P00533 25-645); test: ECL (MSD multi-spot), antigen on plate, Fab 10 nM
T15 construct: Bought Fc chimera; also called ErbB-1; not shown: Fc of the bought chimera

[16] = molecular target: T16, Recombinant Human DLL4 (R&D Systems Cat#1506-D4/CF) (human, UniProt Q9NR61 27-524); test: ECL (MSD multi-spot), antigen on plate, Fab 10 nM
T16 construct: Bought recombinant protein; also called delta-like protein 4

[17] = molecular target: T17, rHuman P-Cadherin/Fc Chimera, CF (R&D Systems Cat#861-PC) (human, UniProt P22223 108-654); test: ECL (MSD multi-spot), antigen on plate, Fab 10 nM
T17 construct: Bought Fc chimera; also called CDH3; not shown: Fc of the bought chimera

[18] = molecular target: T18, rHuman ErbB2/Fc Chimera, CF (R&D Systems Cat#1129-ER) (human, UniProt P04626 23-652); test: ECL (MSD multi-spot), antigen on plate, Fab 10 nM
T18 construct: Bought Fc chimera; also called HER2/neu; not shown: Fc of the bought chimera

[19] = molecular target: T19, rHuman Notch-1/Fc Chimera, CF (R&D Systems Cat#3647-TK) (human, UniProt P46531 19-526); test: ECL (MSD multi-spot), antigen on plate, Fab 10 nM
T19 construct: Bought Fc chimera; not shown: Fc of the bought chimera
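Also: blank spot per well as comparator with Hit at signal to blank ratio of 4 or more.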

B1: Fab VH5-51_IGHD5-18*01>3_IGHJ4*01_G100R & V3-4_IGLJ1*01 (Fab, V domains shown)
VH: EVQLVQSGAEVKKPGESLKISCKGSGYSFTSYWIGWVRQMPGKGLEWMGIIYPGDSDTRYSPSFQGQVTISADKSISTAYLQWSSLKASDTAMYYCARRRYSYGYDYFDYWGQGTLVTVSS
VL: QTVVTQEPSFSVSPGGTVTLTCGLSSGSVSTSYYPSWYQQTPGQAPRTLIYSTNTRSSGVPDRFSGSILGNKAALTITGAQADDESDYYCVLYMGSGISYVFGTGTKVTVL
notes: It was expressed as a Fab: CH1 with tags from Plasmid A and lambda CL from Plasmid E; also called Fab No. 23
- ECL signal [1]: 824 ECL signal
- ECL signal [2]: 1110 ECL signal
- ECL signal [3]: 994 ECL signal
- ECL signal [4]: 19500 ECL signal

B2: Fab VH1-46_IGHD6-6*01_IGHJ1*01 & L6_IGKJ1*01 (Fab, V domains shown)
VH: QVQLVQSGAEVKKPGASVKVSCKASGYTFTSYYMHWVRQAPGQGLEWMGIINPSGGSTSYAQKFQGRVTMTRDTSTSTVYMELSSLRSEDTAVYYCAREEYSSSSAEYFQHWGQGTLVTVSS
VL: not shown
notes: Expressed in E. coli as Fab: heavy chain with CH1 plus Flag and His tags from Plasmid A, kappa light chain constant region from Plasmid C; also called Fab No. 1
- ECL signal [5]: 378
- ECL signal [6]: 317
- ECL signal [7]: 286
- ECL signal [8]: 306
- ECL signal [9]: 241
- ECL signal [10]: 311

B3: Fab VH1-46_IGHD6-6*01_IGHJ1*01_S102A_S103P_S104F & L6_IGKJ1*01_S28P (Fab, V domains shown)
VH: QVQLVQSGAEVKKPGASVKVSCKASGYTFTSYYMHWVRQAPGQGLEWMGIINPSGGSTSYAQKFQGRVTMTRDTSTSTVYMELSSLRSEDTAVYYCAREEYAPFSAEYFQHWGQGTLVTVSS
VL: EIVLTQSPATLSLSPGERATLSCRASQPVSSYLAWYQQKPGQAPRLLIYDASNRATGIPARFSGSGSGTDFTLTISSLEPEDFAVYYCQQRSNWPPWTFGQGTKVEIKR
notes: Fab
- ECL signal [11]: 152 ECL signal
- ECL signal [12]: 392 ECL signal
- ECL signal [13]: 136 ECL signal
- ECL signal [14]: 212 ECL signal
- ECL signal [15]: 207 ECL signal
- ECL signal [16]: 26900 ECL signal
- ECL signal [17]: 216 ECL signal
- ECL signal [18]: 136 ECL signal
- ECL signal [19]: 280 ECL signal

— US20120058906A1 (published 2012)
